In the supplement of paper PMC11316812:
± gives the standard deviation of the averaged measurements.

Assays:
MCF7 = experiment: percentage of EdU-negative (G0-arrested) nuclei per well, 72 h; higher = more G0 arrest; settings: reference: sequence is the full UniProt precursor, the tested protein was the secreted form or ectodomain
hTERT-HMEC = experiment: as above; settings: reference: sequence is the full UniProt precursor, the tested protein was the secreted form or ectodomain
[1] = protein concentration 0.0357143 µM
[2] = protein concentration 0.357143 µM
[3] = protein concentration 0.0140425 µM
[4] = protein concentration 0.140425 µM
[5] = protein concentration 0.0224225 µM
[6] = protein concentration 0.0243425 µM
[7] = protein concentration 0.028825 µM
[8] = protein concentration 0.224225 µM
[9] = protein concentration 0.243425 µM
[10] = protein concentration 0.28825 µM
[11] = protein concentration 0.0225 µM
[12] = protein concentration 0.0111429 µM
[13] = protein concentration 0.111429 µM
[14] = protein concentration 0.03125 µM
[15] = protein concentration 0.3125 µM
[16] = protein concentration 0.0111425 µM
[17] = protein concentration 0.111425 µM
[18] = protein concentration 0.01425 µM
[19] = protein concentration 0.1425 µM
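Note: secreted proteins added to cultured cells, EdU pulse at the end, nuclei found by Hoechst imaging, EdU status from nuclear versus surrounding ring intensity ratio, PBS as neutral control.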

MERLVIRMPFSHLSTYSLVWVMAAVVLCTAQVQVVTQDEREQLYTPASLKCSLQNAQEALIVTWQKKKAVSPENMVTFSENHGVVIQPAYKDKINITQLGLQNSTITFWNITLEDEGCYMCLFNTFGFGKISGTACLTVYVQPIVSLHYKFSEDHLNITCSATARPAPMVFWKVPRSGIENSTVTLSHPNGTTSVTSILHIKDPKNQVGKEVICQVLHLGTVTDFKQTVNKGYWFSVPLLLSIVSLVILLVLISILLYWKRHRNQDRGELSQGVQKMT
percentage of EdU-negative (MCF7; [1]): 23.6 ± 3.9% | percentage of EdU-negative (MCF7; [2]): 23.5 ± 1% | percentage of EdU-negative (hTERT-HMEC; [1]): 5.34 ± 1.2% | percentage of EdU-negative (hTERT-HMEC; [2]): 5.8 ± 1%

MHLRLISWLFIILNFMEYIGSQNASRGRRQRRMHPNVSQGCQGGCATCSDYNGCLSCKPRLFFALERIGMKQIGVCLSSCPSGYYGTRYPDINKCTKCKADCDTCFNKNFCTKCKSGFYLHLGKCLDNCPEGLEANNHTMECVSIVHCEVSEWNPWSPCTKKGKTCGFKRGTETRVREIIQHPSAKGNLCPPTNETRKCTVQRKKCQKGERGKKGRERKRKKPNKGESKEAIPDSKSLESSKEIPEQRENKQQQKKRKVQDKQKSVSVSTVH [Q9BXY4]
percentage of EdU-negative (MCF7; [3]): 23.8 ± 0.26% | percentage of EdU-negative (MCF7; [4]): 24.3 ± 1.6% | percentage of EdU-negative (hTERT-HMEC; [3]): 4.43 ± 0.65% | percentage of EdU-negative (hTERT-HMEC; [4]): 5.27 ± 0.29%

MRACISLVLAVLCGLAWAGKIESCASRCNEKFNRDAACQCDRRCLWHGNCCEDYEHLCTEDHKESEPLPQLEEETEEALASNLYSAPTSCQGRCYEAFDKHHQCHCNARCQEFGNCCKDFESLCSDHEVSHSSDAITKEEIQSISEKIYRADTNKAQKEDIVLNSQNCISPSETRNQVDRCPKPLFTYVNEKLFSKPTYAAFINLLNNYQRATGHGEHFSAQELAEQDAFLREIMKTAVMKELYSFLHHQNRYGSEQEFVDDLKNMWFGLYSRGNEEGDSSGFEHVFSGEVKKGKVTGFHNWIRFYLEEKEGLVDYYSHIYDGPWDSYPDVLAMQFNWDGYYKEVGSAFIGSSPEFEFALYSLCFIARPGKVCQLSLGGYPLAVRTYTWDKSTYGNGKKYIATAYIVSST
percentage of EdU-negative (MCF7; [5]): 25.11 ± 0.21% | percentage of EdU-negative (MCF7; [6]): 25.2 ± 1.4% | percentage of EdU-negative (MCF7; [7]): 24.16 ± 0.045% | percentage of EdU-negative (MCF7; [8]): 28.6 ± 2.5% | percentage of EdU-negative (MCF7; [9]): 27.3 ± 0.39% | percentage of EdU-negative (MCF7; [10]): 27.382 ± 0.0011% | percentage of EdU-negative (hTERT-HMEC; [5]): 5.37 ± 0.81% | percentage of EdU-negative (hTERT-HMEC; [6]): 4.65 ± 0.23% | percentage of EdU-negative (hTERT-HMEC; [7]): 5.03 ± 0.15% | percentage of EdU-negative (hTERT-HMEC; [8]): 5.94 ± 0.48% | percentage of EdU-negative (hTERT-HMEC; [9]): 8.43 ± 1.2% | percentage of EdU-negative (hTERT-HMEC; [10]): 6.74 ± 0.95%

MVWKWMPLLLLLVCVATMCSAQDRTDLLNVCMDAKHHKTKPGPEDKLHDQCSPWKKNACCTASTSQELHKDTSRLYNFNWDHCGKMEPACKRHFIQDTCLYECSPNLGPWIQQVNQSWRKERFLDVPLCKEDCQRWWEDCHTSHTCKSNWHRGWDWTSGVNKCPAGALCRTFESYFPTPAALCEGLWSHSYKVSNYSRGSGRCIQMWFDSAQGNPNEEVARFYAAAMHVNAGEMLHGTGGLLLSLALMLQLWLLG
percentage of EdU-negative (MCF7; [11]): 28.59 ± 0.11% | percentage of EdU-negative (MCF7; protein concentration 0.225 µM): 27.6 ± 2.5% | percentage of EdU-negative (hTERT-HMEC; [11]): 4.38 ± 0.49% | percentage of EdU-negative (hTERT-HMEC; protein concentration 0.225 µM): 5.92 ± 0.29%

MALGLLIAVPLLLQAAPRGAAHYEMMGTCRMICDPYTAAPGGEPPGAKAQPPGPSTAALEVMQDLSANPPPPFIQGPKGDPGRPGKPGPRGPPGEPGPPGPRGPPGEKGDSGRPGLPGLQLTAGTASGVGVVGGGAGVGGDSEGEVTSALSATFSGPKIAFYVGLKSPHEGYEVLKFDDVVTNLGNHYDPTTGKFSCQVRGIYFFTYHILMRGGDGTSMWADLCKNGQVRASAIAQDADQNYDYASNSVVLHLDSGDEVYVKLDGGKAHGGNNNKYSTFSGFLLYPD [Q7Z5L3]
percentage of EdU-negative (MCF7; [12]): 22.8 ± 1.6% | percentage of EdU-negative (MCF7; [13]): 30 ± 0.7% | percentage of EdU-negative (hTERT-HMEC; [12]): 5.39 ± 0.86% | percentage of EdU-negative (hTERT-HMEC; [13]): 5.7 ± 1.1%

MSRREGSLEDPQTDSSVSLLPHLEAKIRQTHSLAHLLTKYAEQLLQEYVQLQGDPFGLPSFSPPRLPVAGLSAPAPSHAGLPVHERLRLDAAALAALPPLLDAVCRRQAELNPRAPRLLRRLEDAARQARALGAAVEALLAALGAANRGPRAEPPAATASAASATGVFPAKVLGLRVCGLYREWLSRTEGDLGQLLPGGSA
percentage of EdU-negative (MCF7; [11]): 25.7 ± 2.9% | percentage of EdU-negative (MCF7; protein concentration 0.225 µM): 26.5 ± 1.6% | percentage of EdU-negative (hTERT-HMEC; [11]): 4.52 ± 0.57% | percentage of EdU-negative (hTERT-HMEC; protein concentration 0.225 µM): 6.17 ± 0.093%

MHYCVLSAFLILHLVTVALSLSTCSTLDMDQFMRKRIEAIRGQILSKLKLTSPPEDYPEPEEVPPEVISIYNSTRDLLQEKASRRAAACERERSDEEYYAKEVYKIDMPPFFPSENAIPPTFYRPYFRIVRFDVSAMEKNASNLVKAEFRVFRLQNPKARVPEQRIELYQILKSKDLTSPTQRYIDSKVVKTRAEGEWLSFDVTDAVHEWLHHKDRNLGFKISLHCPCCTFVPSNNYIIPNKSEELEARFAGIDGTSTYTSGDQKTIKSTRKKNSGKTPHLLLMLLPSYRLESQQTNRRKKRALDAAYCFRNVQDNCCLRPLYIDFKRDLGWKWIHEPKGYNANFCAGACPYLWSSDTQHSRVLSLYNTINPEASASPCCVSQDLEPLTILYYIGKTPKIEQLSNMIVKSCKCS
percentage of EdU-negative (MCF7; [14]): 30.8 ± 2.4% | percentage of EdU-negative (MCF7; [15]): 40.6 ± 2.4% | percentage of EdU-negative (hTERT-HMEC; [14]): 4.63 ± 1.4% | percentage of EdU-negative (hTERT-HMEC; [15]): 15.8 ± 4.9%

MLLLFSVILISWVSTVGGEGTLCDFPKIHHGFLYDEEDYNPFSQVPTGEVFYYSCEYNFVSPSKSFWTRITCTEEGWSPTPKCLRMCSFPFVKNGHSESSGLIHLEGDTVQIICNTGYSLQNNEKNISCVERGWSTPPICSFTKGECHVPILEANVDAQPKKESYKVGDVLKFSCRKNLIRVGSDSVQCYQFGWSPNFPTCKGQVRSCGPPPQLSNGEVKEIRKEEYGHNEVVEYDCNPNFIINGPKKIQCVDGEWTTLPTCVEQVKTCGYIPELEYGYVQPSVPPYQHGVSVEVNCRNEYAMIGNNMITCINGIWTELPMCVATHQLKRCKIAGVNIKTLLKLSGKEFNHNSRIRYRCSDIFRYRHSVCINGKWNPEVDCTEKREQFCPPPPQIPNAQNMTTTVNYQDGEKVAVLCKENYLLPEAKEIVCKDGRWQSLPRCVESTAYCGPPPSINNGDTTSFPLSVYPPGSTVTYRCQSFYKLQGSVTVTCRNKQWSEPPRCLDPCVVSEENMNKNNIQLKWRNDGKLYAKTGDAVEFQCKFPHKAMISSPPFRAICQEGKFEYPICE [Q9BXR6]
percentage of EdU-negative (MCF7; protein concentration 0.024 µM): 25.7 ± 0.37% | percentage of EdU-negative (MCF7; protein concentration 0.24 µM): 30.6 ± 1.7% | percentage of EdU-negative (hTERT-HMEC; protein concentration 0.024 µM): 4.32 ± 0.27% | percentage of EdU-negative (hTERT-HMEC; protein concentration 0.24 µM): 5.71 ± 1.3%

MVLLWEPAGAWLALGLALALGPSVAAAAPRQDCTGVECPPLENCIEEALEPGACCATCVQQGCACEGYQYYDCLQGGFVRGRVPAGQSYFVDFGSTECSCPPGGGKISCQFMLCPELPPNCIEAVVVADSCPQCGQVGCVHAGHKYAAGHTVHLPPCRACHCPDAGGELICYQLPGCHGNFSDAEEGDPERHYEDPYSYDQEVAEVEAATALGGEVQAGAVQAGAGGPPAALGGGSQPLSTIQAPPWPAVLPRPTAAAALGPPAPVQAKARRVTEDSEEEEEEEEEREEMAVTEQLAAGGHRGLDGLPTTAPAGPSLPIQEERAEAGARAEAGARPEENLILDAQATSRSTGPEGVTHAPSLGKAALVPTQAVPGSPRDPVKPSPHNILSTSLPDAAWIPPTREVPRKPQVLPHSHVEEDTDPNSVHSIPRSSPEGSTKDLIETCCAAGQQWAIDNDECLEIPESGTEDNVCRTAQRHCCVSYLQEKSCMAGVLGAKEGETCGAEDNDSCGISLYKQCCDCCGLGLRVRAEGQSCESNPNLGYPCNHVMLSCCEGEEPLIVPEVRRPPEPAAAPRRVSEAEMAGREALSLGTEAELPNSLPGDDQDECLLLPGELCQHLCINTVGSYHCACFPGFSLQDDGRTCRPEGHPPQPEAPQEPALKSEFSQVASNTIPLPLPQPNTCKDNGPCKQVCSTVGGSAICSCFPGYAIMADGVSCEDINECVTDLHTCSRGEHCVNTLGSFHCYKALTCEPGYALKDGECEDVDECAMGTHTCQPGFLCQNTKGSFYCQARQRCMDGFLQDPEGNCVDINECTSLSEPCRPGFSCINTVGSYTCQRNPLICARGYHASDDGTKCVDVNECETGVHRCGEGQVCHNLPGSYRCDCKAGFQRDAFGRGCIDVNECWASPGRLCQHTCENTLGSYRCSCASGFLLAADGKRCEDVNECEAQRCSQECANIYGSYQCYCRQGYQLAEDGHTCTDIDECAQGAGILCTFRCLNVPGSYQCACPEQGYTMTANGRSCKDVDECALGTHNCSEAETCHNIQGSFRCLRFECPPNYVQVSKTKCERTTCHDFLECQNSPARITHYQLNFQTGLLVPAHIFRIGPAPAFTGDTIALNIIKGNEEGYFGTRRLNAYTGVVYLQRAVLEPRDFALDVEMKLWRQGSVTTFLAKMHIFFTTFAL
percentage of EdU-negative (MCF7; [16]): 23.7 ± 1.3% | percentage of EdU-negative (MCF7; [17]): 25.1 ± 2.6% | percentage of EdU-negative (hTERT-HMEC; [16]): 5.72 ± 0.17% | percentage of EdU-negative (hTERT-HMEC; [17]): 6.99 ± 0.78%

MERASLIQKAKLAEQAERYEDMAAFMKGAVEKGEELSCEERNLLSVAYKNVVGGQRAAWRVLSSIEQKSNEEGSEEKGPEVREYREKVETELQGVCDTVLGLLDSHLIKEAGDAESRVFYLKMKGDYYRYLAEVATGDDKKRIIDSARSAYQEAMDISKKEMPPTNPIRLGLALNFSVFHYEIANSPEEAISLAKTTFDEAMADLHTLSEDSYKDSTLIMQLLRDNLTLWTADNAGEEGGEAPQEPQS
percentage of EdU-negative (MCF7; [11]): 25.3 ± 4.8% | percentage of EdU-negative (MCF7; protein concentration 0.225 µM): 20.9 ± 1.9% | percentage of EdU-negative (hTERT-HMEC; [11]): 4.93 ± 0.53% | percentage of EdU-negative (hTERT-HMEC; protein concentration 0.225 µM): 5.22 ± 0.073%

MERCPSLGVTLYALVVVLGLRATPAGGQHYLHIRPAPSDNLPLVDLIEHPDPIFDPKEKDLNETLLRSLLGGHYDPGFMATSPPEDRPGGGGGAAGGAEDLAELDQLLRQRPSGAMPSEIKGLEFSEGLAQGKKQRLSKKLRRKLQMWLWSQTFCPVLYAWNDLGSRFWPRYVKVGSCFSKRSCSVPEGMVCKPSKSVHLTVLRWRCQRRGGQRCGWIPIQYPIISECKCSC
percentage of EdU-negative (MCF7; [18]): 23.9 ± 0.44% | percentage of EdU-negative (MCF7; [19]): 25.4 ± 2.8% | percentage of EdU-negative (hTERT-HMEC; [18]): 4.77 ± 0.41% | percentage of EdU-negative (hTERT-HMEC; [19]): 5.81 ± 0.99%
